{
  "source": "the nanobody polyreactivity screen of Harvey et al. (2022)",
  "data": [
    {"assay": "yeast display, Sf9 membrane polyspecificity reagent, FACS + sequencing; frameworks hold sequencing errors", "how_it_was_run": "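A synthetic nanobody library was expressed on Saccharomyces cerevisiae BJ5465 by galactose induction for 36–48 hours. The library was stained for 1 hour at 4 °C with 10% biotinylated, detergent-solubilized Sf9 membrane reagent and enriched with streptavidin microbeads before FACS. Low and high (top ~1%) gates were set on anti-HA fluorescence for expression and streptavidin fluorescence for reagent binding, and each polyreactivity label reflects the gate of origin.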", "values": [
      {"sequence": "QVQLVESGGGLVQAGGSLRLICAASGITFSAYAMGWYRQAPGKERELVAAITRSGGITYYADSVKGRFTISRDNAKNSVYLQMNSLKPEDTAVYYCNKPYASPYYDSWGQGTQVTVSS", "polyreactivity (PSR sort gate)": "high polyreactivity"},
      {"sequence": "QVQLVESGGGLVQAGGSLRLSCAASGSTFYANAMGWYRQAPGKDRELVAAITRSGAGTYYADSVKGRFTISRDNAKNTGYLQMNSLKPEDTAVYYCAKRTKTPTGYVWGGYDYWGQGTQVTGSS", "polyreactivity (PSR sort gate)": "high polyreactivity"},
      {"sequence": "QVQLVESGGGLVQAGGSLRLSCAASGSTFFANAMGWYRQAPGKERELVAAITSGGSTYYADSVKVRFTISRDNAKNTVYLQMNSLKPEDTAVYYCAAPLCGGARWGRWWLYDSWGQGTQVNVSS", "polyreactivity (PSR sort gate)": "low polyreactivity"},
      {"sequence": "QVQLVESGGGLVQAGGSLRLSCAASGRTFVSYAMGWYRQAPGKERELVATITGSTGGTYYADSVKGRFTISRDNAKNTVYLQMNSLKPEDTAVYYCAADRTTYTYYLPYDYWGQGTQVTVSS", "polyreactivity (PSR sort gate)": "low polyreactivity"},
      {"sequence": "QVQLVESGGGLVQAGGSLRLSCAASGFTFGFYVMGWYRQAPGKERELVAAITVRAGSTYYADSVKGRFTISRDNAKNTVYLQMNSLKPEDTAVYYCAADSYRLYSSIAYYGMYSWGQGTQVTVSS", "polyreactivity (PSR sort gate)": "high polyreactivity"},
      {"sequence": "QVQLVESGGGLVQAGGSLRLSCAASGFIFTFYAMGWYRQAPGKERELVAAISSSGGSTYYADSVKGRFTISRDNAKNTVYLQMNSLKPEDTAVYYCNAVRYHARSGWSDYWGQGTQVTVSS", "polyreactivity (PSR sort gate)": "high polyreactivity"},
      {"sequence": "QVQLVESGGGLVQAGGSLRLSCAASGSIFTYYAMGWYRQAPGKERELVAAISWNGGTTYYADSVKGLFTISRDNAKNTVYLQMNSLKPEDTAVYYCNKDGSYRYDYWGQGTQVTVSS", "polyreactivity (PSR sort gate)": "low polyreactivity"},
      {"sequence": "QVQLVESGGGLVQAGGSLRLSCAASGFIFYDYTMGWYRQAPGKERELVAAISSRGGSTYYADSVKGRFTISRDNAKNTVYLQMNSLKPEDTAVYYCAAYWSQQTYEYWGQGTQVTVSS", "polyreactivity (PSR sort gate)": "high polyreactivity"},
      {"sequence": "QVQLEESGGGLVQAGGSLRLSCAASGSIFYYYVMGWCRQAPGKERELVAAISSGGGTNYADSVKGRFTISRDNAKNTVYLQMNSLKPEDTAVYYCAKASAYGLANDYDYWGQGTQVTVSS", "polyreactivity (PSR sort gate)": "low polyreactivity"},
      {"sequence": "QVQLVESGVGLDQAGGSLRLSCAASGSTFWWNNMVCYRQAPGKERELVAAITTGGGTYYADSVKGRFTISRDNAKNSVYLQMNSLKPEDTAVYYCAATVRSYGWYAYHYSTYGYWGKGTQVTVSS", "polyreactivity (PSR sort gate)": "low polyreactivity"},
      {"sequence": "QVQLVESGGGLVQAGGSLRLICAASGRIFLYYAMGWYRQAPGKERELVAAITRGGGTTYADSVKGRFTISRDNAKNTVYLQMNSLKPEDTAVYYCAKRYSYYPGFDYWGQGTQVTVSS", "polyreactivity (PSR sort gate)": "high polyreactivity"},
      {"sequence": "QVQLVESGGGLVQAGGSLRLSCAASGFIVKYNAMAWYRQAPGKERELVAAISYRGTRTYYADSVKGRFTISRDNAKNTVYLQMNSLKPEDTAVYYCNAGLTYNHDPYDYWGQGTQVTVSS", "polyreactivity (PSR sort gate)": "high polyreactivity"},
      {"sequence": "QVQLVESGGGLVQAGGSLRLSCAASGSIFAVNAMGWYRQAPGKERELVAAISWRDTGTYYADSVKGRFTISRDNAKNTVYLQMNSLKPEDTAVYYCAADAQVNPYYPDEYWGQGTQVTVSS", "polyreactivity (PSR sort gate)": "low polyreactivity"},
      {"sequence": "QVQLVESGGGLVQAGGSLRLSCAASGRTFFGYAMGWYRQAPGKERELVAAINWGGASTYYADSVKGRFTISRDNAKNTVYLQMNSLKPEDTAVYYCAADSVPSRPTYGRYDYWGQGTQVTVSS", "polyreactivity (PSR sort gate)": "low polyreactivity"},
      {"sequence": "QVQLVESGGGLVQAGGSLRLSCAASGRIFTANAMGWYRQAPGKERELVAAISWRGGSTYYADSVKGRFTISRDNAKNTVYLQMNSLKPEDTAVYYCNKVGATWRQWFGYWGQGTQVTVSS", "polyreactivity (PSR sort gate)": "high polyreactivity"},
      {"sequence": "QVQLVESGGGLVQAGGSLRLSCAASGAIFDWYAMGGDRPAPGKERELVADITWSGDSTYYADSVKGRFTISRDHAKNTVYLKMNSLKPEDTAVFYCAADIWFYTYYEYDYWGQGTQVTVSS", "polyreactivity (PSR sort gate)": "high polyreactivity"},
      {"sequence": "QVQLVESGGGLVQAGGSLRLSCAASGRIFHNNAMGWYIQAPGKERELVAAISTGGSTNYADSVKGRFTISRDNAKNTVYLQMNSLKPEDTAVYYCAADHPVTYPTSKFDYWGQGTQVTVSS", "polyreactivity (PSR sort gate)": "low polyreactivity"},
      {"sequence": "QVQLVESGGGLVQAGGSLRLSCAASGSTFIFYAMGWYRQAPGKERELVATISGGGSTYYADSVKGRFTISRDNAKNTVYLQMNSLKPEDTAVYYCATDVQVPGIGRSVYAYEYWGQGTQVTVSS", "polyreactivity (PSR sort gate)": "low polyreactivity"},
      {"sequence": "QVQLVESGGGKVQAGGSLRLSCAASGRIFYLNAMGWYRQAPGKEREFVAAITRNGGNTYYADSVKGRFTISRDNAKNTVYLQMNSLKPEDTAVYYCNAKYWPFSRWYYYWGQGTQVTVSS", "polyreactivity (PSR sort gate)": "high polyreactivity"},
      {"sequence": "QVQLVESGGGLVQAGGSLRLSCAASGYTFAGNAMGWYRQAPGKERELVAVITYSGGSTYYADSVKGRFTISRDNAKNTVYSQMNSLKPEDTAVYYCNAVRDRYASDYWGQGTQVTVSS", "polyreactivity (PSR sort gate)": "low polyreactivity"},
      {"sequence": "QVQLVESGGGLVQAGGSLRLSCAASGRIFYSKVMGWYRQAPGKERELVAALSGRTGGTYYADSVKGRFTISRDNAKNTVYLQMNSLKPEDTAVYYCAARVLYYYGSGPYDYWGQGTQVTVSS", "polyreactivity (PSR sort gate)": "low polyreactivity"},
      {"sequence": "QVQLVESGGGLVQAGGSLRLSCAASGSTFARYTMGWYRQAPGKERELVAAITSNGVSTYYADSVKGRFTISRDNAKNTVYLQMNSLKPEDTAVYYCAASSRSRYGRNDYWGQGTQVTVSS", "polyreactivity (PSR sort gate)": "low polyreactivity"},
      {"sequence": "QVKLVYSGGGLVQAGGSLRLSCAASVSIFYYYGMGWYRQAPVKERQLVAAITYRGTRTYYADSGKGRFTFSRDNAKTTVYLQMYSLKAEDTALYYCAAERRIYSSDSWGQGTQVTVSS", "polyreactivity (PSR sort gate)": "high polyreactivity"},
      {"sequence": "QVQLVESGGGLVQAGGSLRLSCAASGRTFIGYAMGWYRQAPGKERELVATISVSGGSTYYADSVKGRFTISRDNAKNTVYLQMNSLTPVDTAVYYCADDPRYLQSWRGEFAGESWGQGTQVTVAS", "polyreactivity (PSR sort gate)": "low polyreactivity"},
      {"sequence": "QVQLVESGGGLVQAGGSLRLSCAASGSTSQPYAMGWYRQAPGQERELVASITNGGITYYADSVKGRFTISRDNAKNTVYLQMNSLKPEDTAVYYCNTVSYTEFDYWGQGTQVTVSS", "polyreactivity (PSR sort gate)": "low polyreactivity"},
      {"sequence": "QVQLVESGGGLVQAGGSLRLSCAASGRIFYSYAMGWYRQAPGKEREFVAAISYSGGSTYYADSVKGRFTISRDNAKNTVFLQMNSLKPEDTAVYYCAAKVKFYTYYYWGQGTQVTVSS", "polyreactivity (PSR sort gate)": "high polyreactivity"},
      {"sequence": "QVQLVESGGGLVQAGGSLRLSCASSGSTFTRYAMGWYRQAPGKERELVAAINSSGGRTYYADSVKGRFTISRDNAKNTVYLQMNSLKPEDTAVYYCAATRGRYREDEDYWGQGTQVTVSS", "polyreactivity (PSR sort gate)": "high polyreactivity"},
      {"sequence": "QVQLVESGGGLVQAGGSLRLSCAASGSIVRSYAMGWYRQAPGKERELVASITDGTITNYADSVKGRFTISRDNAKNTVYLQMISLKPDDTAVYYCAAGTLAHAYVVRPIEMDYWGQGTQVTVSS", "polyreactivity (PSR sort gate)": "low polyreactivity"},
      {"sequence": "QVQLVESGGGLVQAVGSLRLSCAASGRTFNSYTMGWYRQAPGKERELVAAISSGGSTTYADSVKGRFTISRDNAKNTVYLQMNSLKPEDTAVYYCAAGLVYRGYRRDYWGQGTQVTVSS", "polyreactivity (PSR sort gate)": "low polyreactivity"},
      {"sequence": "QVQLVESGGGLVQAGGSLRLSCAASGFTFATYAMGWYRQAPGKERELVAAITSGDRTKYADSVKGRFTISRDNAKNTVYLQMNSLKPEDTAVYYCAATTYKVSTGYGYWGQGTQVTVSS", "polyreactivity (PSR sort gate)": "high polyreactivity"},
      {"sequence": "QVQLVESGGGLVQAGRSLRLSCPAYGFTFVINDMGWYRQAPGKEREFVADITSGGDTYYADSVKGRFTISRDNAKNTVYLQMNSLKPEDTAVFYCAADIYPDWIYLLYGYWGQGTQVTVSS", "polyreactivity (PSR sort gate)": "low polyreactivity"},
      {"sequence": "QVQLVESGGGLVQAGGSRRLSWAASGSTFPRNAMGWYRQAPGKERELVAAISSGGSTYYADSVKWRFTISRDNAKNTVYLQMNSLKPEDTAVYYCAARLYWPIIVVDLYGYDYWGEGTQVTVSS", "polyreactivity (PSR sort gate)": "low polyreactivity"},
      {"sequence": "QVQLVESGVGLVQAGGSLRLICAASGSTFYYYAMGWYRQAPGKEREFVAAISSSTGSTYYADSVKGRFTISRDNAKNTVYLQLNSLKPEDTAVYYCNALTWYTSQDYDYWGQGTQVTVSS", "polyreactivity (PSR sort gate)": "high polyreactivity"},
      {"sequence": "QVQLVESGGGLVQAGGSLRLSCAASGSTYRYTMGWYRQAPGKERELVAAITGSAGRTYYADSVKGRFTISRDNAKNTVYLQMNSLKPEDTAVYYCNKVRPRKFWDYYYWGQGTQVTVSS", "polyreactivity (PSR sort gate)": "high polyreactivity"},
      {"sequence": "QVQLVESGGGLVQAGGSLRLSCAASGFIFGYYGMGWYRQAPGKERELVAAITDGGSTTYADSVKGRFTISRDNAKNTVYLQMNSLKPEDTAVYYCNAEAGGFDYYGKTYRYGDYWGQGTQVTVSS", "polyreactivity (PSR sort gate)": "low polyreactivity"},
      {"sequence": "QVQLVESAGGLVQAGGSLRLSCAASGRTFRTYAMGWYRPAPVKERELVAAITSGGNTYYADSVKGRFTISRDNAKNTVYLQMNSLKPEDTAVYYCAAVQYFKVYYWGQGTQVTVSS", "polyreactivity (PSR sort gate)": "high polyreactivity"},
      {"sequence": "QVQHVESGGGLVQAGGSLRLSCAASGRTYRYNAMGWYRQAPGKETELVAAITGGGSTNYADSVKGRFTISRDNAKYTVYLQMNSLKPEDTAVYYCATGGFKYWWLYPYDYWGQGTQVTVSS", "polyreactivity (PSR sort gate)": "low polyreactivity"},
      {"sequence": "QVQLVESGGGLVQAGGSLRLSCAASGGTFRVYAMGWYRQAPVKERELVDAITWRGGRTYYADSVKGRFTISRDNAKNTDYFQMNSLKPEDPAVYYCAADRYGDLYDYWGQGTQVTVSS", "polyreactivity (PSR sort gate)": "high polyreactivity"},
      {"sequence": "QVHLVESGGGLVQAGGSLRLSCAASGFTFRYYTMGWYRQAPGKERELVARITWSGGITYYADSVKGRFTISRDNAKNTVYLQMNSLKPEDTAVYYCNAERRWAAYDYWGQGTQVTVSS", "polyreactivity (PSR sort gate)": "high polyreactivity"},
      {"sequence": "QVQLVESGGGLVQAGGSLRLSCAASGIIFGGYAMGWYRQAPGKERELVASITWGGGSTYYADSVKGRFTISRDNAKNTVYLQMNSLKPEDTAVYYCNKRGYPGYDWGQGTQVTVSS", "polyreactivity (PSR sort gate)": "low polyreactivity"},
      {"sequence": "QVQLVESGGGLVQAGGSLRLSCAASGLIFATTVLGWYRQAPGKERELVASITTSGSRTYYADSVKGRFTISRDNAKNTVYLQMNSLKPEDTAVYYCAAYPTYLTPSSPGYDYWGQGTQVTVSS", "polyreactivity (PSR sort gate)": "high polyreactivity"}
    ]}
  ]
}
